Assay results: article PMC6802120, “Concatenation of 14-3-3 with partner phosphoproteins as a tool to study their interaction” (Scientific Reports, 2019)
Where “and” joins values, the source holds several entries; their conditions need not be identical. Equal values may be shown once.

What was measured:
[1] = biological target: 14-3-3σ∆C (C-terminally truncated human 14-3-3σ, residues 1-231) (human) (UniProt P31947); assay: SEC; fluorescence-assisted size-exclusion spectrochromatography, Superdex 200 Increase 5/150, SEC buffer; detection at 230 nm absorbance and Trp fluorescence (excitation 298 nm, emission 360 nm); proteins alone and mixed
[2] = biological target: the molecule itself; assay: as above
[3] = biological target: the molecule itself; assay: SEC; same column and buffer as a1; higher loaded protein concentrations (second peak appears); apparent MW from column calibration; dimer to tetramer
[4] = biological target: the molecule itself; assay: SEC; Superdex 200 Increase 5/150, 0.45 ml/min; 20 mM Tris-HCl pH 7.6, 150 mM NaCl, 0.5 mM EDTA, 1 mM DTT, 3% glycerol; low loaded protein concentration; apparent MW from column calibration

Molecule | stoichiometry N [1] | stoichiometry N [2] | stoichiometry N [3] | stoichiometry N [4]
14-3-3σ∆C (C-terminally truncated human 14-3-3σ, residues 1-231) (from UniProt P31947 1-231) (domain or fragment) | 2 | – | – | –
HSPB6 ACD (α-crystallin domain, residues 72-149) (domain or fragment, human, UniProt O14558 72-149, looked up, human small heat shock protein HSPB6, α-crystallin domain, residues 72-149; also called ACD dimer; isolated ACD) GHFSVLLDVKHFSPEEIAVKVVGEHVEVHARHEERPDEHGFVAREFHRRYRLPPGVDPAAVTSALSPEGVLSIQAAPA | – | 2 | – | –
pCH1 (phosphorylated peptidic chimera of 14-3-3σ(clu3)∆C with the HSPB6 phosphopeptide, residues 12-19) (other, human, phosphoserine at Ser16 of the HSPB6 peptide (phosphorylated by PKA), three extra residues left at the N-terminus after 3C cleavage; human 14-3-3σ, C-terminally truncated, residues 1-231, with the 'clu3' replacements; linker; also called phosphorylated CH1; 14-3-3-phosphopeptide chimera; not shown: His6, N-terminal, cleaved) GPHMERASLIQKAKLAEQAERYEDMAAFMKGAVEKGEELSCEERNLLSVAYKNVVGGQRAAWRVLSSIEQKSNEEGSAAAGPEVREYREKVETELQGVCDTVLGLLDSHLIKEAGDAESRVFYLKMKGDYYRYLAEVATGDDKKRIIDSARSAYQEAMDISKKEMPPTNPIRLGLALNFSVFHYEIANSPEEAISLAKTTFDEAMADLHTLSEDSYKDSTLIMQLLRDNLTLWTGSGSLRRASAPL | – | 4 and 2 | – | –
14-3-3-pB6 chimera (PKA-phosphorylated chimera of human 14-3-3σ(clu3)∆C and HSPB6 residues 12-153) (other, phosphoserine at Ser16 of the HSPB6 part (phosphorylated by PKA), three extra residues left at the N-terminus after 3C cleavage; human 14-3-3σ, C-terminally truncated (14-3-3σ∆C), residues 1-231, with the surface entropy reduction 'clu3' replacements; linker; the full chimera 'followed the same principles' as CH1; human small heat shock protein HSPB6, residues 12-153 (out of 160): Ser16 phosphopeptide region, rest of the NTD and the α-crystallin domain; Could …) GPHMERASLIQKAKLAEQAERYEDMAAFMKGAVEKGEELSCEERNLLSVAYKNVVGGQRAAWRVLSSIEQKSNEEGSAAAGPEVREYREKVETELQGVCDTVLGLLDSHLIKEAGDAESRVFYLKMKGDYYRYLAEVATGDDKKRIIDSARSAYQEAMDISKKEMPPTNPIRLGLALNFSVFHYEIANSPEEAISLAKTTFDEAMADLHTLSEDSYKDSTLIMQLLRDNLTLWTGSGSLRRASAPLPGLSAPGRLFDQRFGEGLLEAELAALCPTTLAPYYLRAPSVALPVAQVPTDPGHFSVLLDVKHFSPEEIAVKVVGEHVEVHARHEERPDEHGFVAREFHRRYRLPPGVDPAAVTSALSPEGVLSIQAAPASAQA | – | – | 4 | 2
unphosphorylated 14-3-3-B6 chimera (human 14-3-3σ(clu3)∆C and HSPB6 residues 12-153) (other, three extra residues left at the N-terminus after 3C cleavage; human 14-3-3σ, C-terminally truncated (14-3-3σ∆C), residues 1-231, with the 'clu3' replacements; linker; the full chimera 'followed the same principles' as CH1; human small heat shock protein HSPB6, residues 12-153 (out of 160); also called unphosphorylated chimera; unphosphorylated version; source: E. coli BL21(DE3) without PKA, …) GPHMERASLIQKAKLAEQAERYEDMAAFMKGAVEKGEELSCEERNLLSVAYKNVVGGQRAAWRVLSSIEQKSNEEGSAAAGPEVREYREKVETELQGVCDTVLGLLDSHLIKEAGDAESRVFYLKMKGDYYRYLAEVATGDDKKRIIDSARSAYQEAMDISKKEMPPTNPIRLGLALNFSVFHYEIANSPEEAISLAKTTFDEAMADLHTLSEDSYKDSTLIMQLLRDNLTLWTGSGSLRRASAPLPGLSAPGRLFDQRFGEGLLEAELAALCPTTLAPYYLRAPSVALPVAQVPTDPGHFSVLLDVKHFSPEEIAVKVVGEHVEVHARHEERPDEHGFVAREFHRRYRLPPGVDPAAVTSALSPEGVLSIQAAPASAQA | – | – | 4 | 2
